Results taken from patent publication US20240415889A1.

How the values were obtained:
CD94/NKG2A [1] = experiment: competitive ELISA (HLA-E tetramer)
Target sequence in this assay (main, as listed by the source): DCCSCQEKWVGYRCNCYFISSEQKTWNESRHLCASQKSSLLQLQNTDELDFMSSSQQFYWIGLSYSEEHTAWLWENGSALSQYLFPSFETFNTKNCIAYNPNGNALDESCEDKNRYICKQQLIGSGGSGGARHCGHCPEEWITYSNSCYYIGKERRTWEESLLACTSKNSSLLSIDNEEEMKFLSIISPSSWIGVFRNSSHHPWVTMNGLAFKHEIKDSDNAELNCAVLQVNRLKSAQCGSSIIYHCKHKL

CD94/NKG2A [2] = experiment: competitive ELISA (HLA-E tetramer); FIG. 26
Target sequence in this assay (main, as listed by the source): as above

CD94/NKG2A [3] = experiment: reported IC50; reported value
CD94/NKG2A [4] = experiment: BLI
Target sequence in this assay (main, as listed by the source): as above

Substance | IC50 (CD94/NKG2A [1]) | IC50 (CD94/NKG2A [2]) | IC50 (CD94/NKG2A [3]) | Kd (CD94/NKG2A [4])
Monalizumab | 1.5 nM | 1 nM | 2 nM | 
Mona analog IgG1 (LALA-PG) |  |  |  | 4.32 nM
